From patent US20070093646A1 (BIOTIE THERAPIES, published 2007) come the findings set out here.

The series deals with the molecule itself. In words: X-ray crystal structure, 3.2 A, molecular replacement; one dimer per asymmetric unit. As for the experimental part:
One crystal was mounted in a capillary and preliminary X-ray analysis was carried out in-house using a rotating-anode radiation source (Cu Kα radiation, 50 kV, 150 mA) and MAR345 image plate detector. The crystal, however, diffracted to only 8 Å resolution and the space group could not be accurately determined. All further X-ray analysis, as well as data collection, was carried out using synchrotron radiation at the beamline X11 (EMBL/DESY Hamburg, Germany) equipped with a MAR Research CCD detector. For data collection, the crystals were cryo-protected with 20% (v/v) glycerol and flash-frozen in a 100 K nitrogen stream. Diffraction data, collected from three different crystals, were processed with the program XDS. The solvent content and Matthews coefficient were calculated assuming a molecular weight of 90 kDa per monomer and using the CCP4 suite.
The structure of VAP-1 was solved by molecular replacement using the program AMORE (Navaza, 1994) of the CCP4i program suite (Collaborative Computational Project, 1994). This method confirmed that the space group of VAP-1 crystals was P6522 with one biological unit, a dimer per asymmetric unit. […]
Electron density maps were calculated with FFT of CCP4i suite and were predictable enough to trace the VAP-1 polypeptide, even though, at the beginning of building, in several fragments. […]

B1: human vascular adhesion protein-1 (VAP-1) (enzyme)
chain: MNQKTILVLLILAVITIFALVCVLLVGRGGDGGEPSQLPHCPSVSPSAQPWTHPGQSQLFADLSREELTAVMRFLTQRLGPGLVDAAQARPSDNCVFSVELQLPPKAAALAHLDRGSPPPAREALAIVFFGRQPQPNVSELVVGPLPHPSYMRDVTVERHGGPLPYHRRPVLFQEYLDIDQMIFNRELPQASGLLHHCCFYKHRGRNLVTMTTAPRGLQSGDRATWFGLYYNISGAGFFLHHVGLELLVNHKALDPARWTIQKVFYQGRYYDSLAQLEAQFEAGLVNVVLIPDNGTGGSWSLKSPVPPGPAPPLQFYPQGPRFSVQGSRVASSLWTFSFGLGAFSGPRIFDVRFQGERLVYEISLQEALAIYGGNSPAAMTTRYVDGGFGMGKYTTPLTRGVDCPYLATYVDWHFLLESQAPKTIRDAFCVFEQNQGLPLRRHHSDLYSHYFGGLAETVLVVRSMSTLLNYDYVWDTVFHPSGAIEIRFYATGYISSAFLFGATGKYGNQVSEHTLGTVHTHSAHFKVDLDVAGLENWVWAEDMVFVPMAVPWSPEHQLQRLQVTRKLLEMEEQAAFLVGSATPRYLYLASNHSNKWGHPRGYRIQMLSFAGEPLPQNSSMARGFSWERYQLAVTQRKEEEPSSSSVFNQNDPWAPTVDFSDFINNETIAGKDLVAWVTAGFLHIPHAEDIPNTVTVGNGVGFFLRPYNFFDEDPSFYSADSIYFRGDQDAGACEVNPLACLPQAAACAPDLPAFSHGGFSHN
modifications: topaquinone (Tpq471) formed by post-translational modification of an intrinsic tyrosine at 471; N-glycan attached to Asn232; one copper ion per monomer in the active site
notes: Full-length protein was crystallized; Only residues A55-A761 and B57-B761 are modelled in the structure, with a few gaps; PDB entries are printed as IPU4 (probably 1PU4) and 1US1; also called hVAP-1; HVAP-1
Take B1: the binding result was “binds”.
